# Test results reported in paper PMC3669278, “An Iron 13S-Lipoxygenase with an α-Linolenic Acid Specific Hydroperoxidase Activity from Fusarium oxysporum” (PLoS ONE, 2013).
# T1: FoxLOX (Fusarium oxysporum, UniProt A0A0J9UTC2)
# T1 construct: gene FOXG_04807; full-length ORF, 744 residues, in pET28a with N-terminal hexa-His tag (removal not mentioned); E. coli Bl21star; non-heme iron; iron-ligand residues His-408, His-413, His-595, Asp-599, Ile-744
# T1 sequence (A0A0J9UTC2 1-744): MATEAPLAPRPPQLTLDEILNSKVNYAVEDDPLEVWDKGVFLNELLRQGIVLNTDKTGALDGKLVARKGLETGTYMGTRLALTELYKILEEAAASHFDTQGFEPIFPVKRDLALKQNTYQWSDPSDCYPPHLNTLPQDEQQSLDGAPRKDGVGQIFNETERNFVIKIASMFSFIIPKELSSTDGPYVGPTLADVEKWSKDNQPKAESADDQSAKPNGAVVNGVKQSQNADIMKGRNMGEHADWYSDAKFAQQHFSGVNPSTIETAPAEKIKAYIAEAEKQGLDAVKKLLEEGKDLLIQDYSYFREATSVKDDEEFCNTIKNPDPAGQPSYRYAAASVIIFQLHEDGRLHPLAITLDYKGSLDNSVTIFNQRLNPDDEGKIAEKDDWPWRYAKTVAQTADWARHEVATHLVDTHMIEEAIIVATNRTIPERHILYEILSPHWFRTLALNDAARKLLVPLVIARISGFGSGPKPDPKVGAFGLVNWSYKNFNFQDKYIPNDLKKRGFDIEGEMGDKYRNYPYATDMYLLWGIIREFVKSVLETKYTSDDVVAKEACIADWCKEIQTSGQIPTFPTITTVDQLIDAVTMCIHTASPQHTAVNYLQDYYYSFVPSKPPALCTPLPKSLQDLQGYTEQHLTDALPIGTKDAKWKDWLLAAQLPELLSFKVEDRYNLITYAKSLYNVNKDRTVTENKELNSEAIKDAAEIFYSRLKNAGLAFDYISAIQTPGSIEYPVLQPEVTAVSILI
# Experiments:
# FoxLOX = target: T1, FoxLOX; assay: initial rate of conjugated diene formation at […] nm, Michaelis-Menten fit; format: biochemical; conditions: 50 mM Tris/HCl pH 8.0, room temperature, air-equilibrated, fatty acid sodium salt
# [1] = target: FoxLOX (Fusarium oxysporum lipoxygenase, iron 13S-lipoxygenase) (Fusarium oxysporum f. sp. lycopersici strain 4287); assay: SEC; S200pg 26/60 column; 50 mM Tris/HCl pH 8.0, 10% glycerol, 125 mM NaCl; affinity-purified FoxLOX; apparent mass about 173 kDa against about 80 kDa by SDS-PAGE and 83.5 kDa theoretical
# purified protein = substrate: CCCCC/C=C\C/C=C\C/C=C\C/C=C\CCCC(=O)O; assay: purified protein; format: biochemical, Fusarium oxysporum; conditions: 50 mM Tris/HCl pH 8.0, room temperature, air-equilibrated, fatty acid sodium salt
molecule,measurement,setting,value
CCCCC/C=C\C/C=C\CCCCCCCC(=O)O [18∶2(n-6)],Km,FoxLOX,6.89 ± 0.79 µM
CC/C=C\C/C=C\C/C=C\CCCCCCCC(=O)O [18∶3(n-3)],Km,FoxLOX,31.7 ± 3.79 µM
CCCCC/C=C\C/C=C\C/C=C\CCCCC(=O)O [18∶3(n-6)],Km,FoxLOX,34.8 ± 5.38 µM
"FoxLOX (Fusarium oxysporum lipoxygenase, iron 13S-lipoxygenase) (enzyme)",stoichiometry N,[1],2
"FoxLOX (Fusarium oxysporum f. sp. lycopersici 4287) (protein, full-length ORF, 744 residues, in pET28a with N-terminal hexa-His tag (removal not mentioned); E. coli Bl21star; non-heme iron; iron-ligand residues His-408, His-413, His-595, Asp-599, Ile-744) MATEAPLAPRPPQLTLDEILNSKVNYAVEDDPLEVWDKGVFLNELLRQGIVLNTDKTGALDGKLVARKGLETGTYMGTRLALTELYKILEEAAASHFDTQGFEPIFPVKRDLALKQNTYQWSDPSDCYPPHLNTLPQDEQQSLDGAPRKDGVGQIFNETERNFVIKIASMFSFIIPKELSSTDGPYVGPTLADVEKWSKDNQPKAESADDQSAKPNGAVVNGVKQSQNADIMKGRNMGEHADWYSDAKFAQQHFSGVNPSTIETAPAEKIKAYIAEAEKQGLDAVKKLLEEGKDLLIQDYSYFREATSVKDDEEFCNTIKNPDPAGQPSYRYAAASVIIFQLHEDGRLHPLAITLDYKGSLDNSVTIFNQRLNPDDEGKIAEKDDWPWRYAKTVAQTADWARHEVATHLVDTHMIEEAIIVATNRTIPERHILYEILSPHWFRTLALNDAARKLLVPLVIARISGFGSGPKPDPKVGAFGLVNWSYKNFNFQDKYIPNDLKKRGFDIEGEMGDKYRNYPYATDMYLLWGIIREFVKSVLETKYTSDDVVAKEACIADWCKEIQTSGQIPTFPTITTVDQLIDAVTMCIHTASPQHTAVNYLQDYYYSFVPSKPPALCTPLPKSLQDLQGYTEQHLTDALPIGTKDAKWKDWLLAAQLPELLSFKVEDRYNLITYAKSLYNVNKDRTVTENKELNSEAIKDAAEIFYSRLKNAGLAFDYISAIQTPGSIEYPVLQPEVTAVSILI",Km,purified protein,3.37 ± 0.55 µM
same,kcat,purified protein,1.71 ± 0.0632 s⁻¹
same,kcat/Km,purified protein,507000 M⁻¹ s⁻¹
